The record followed here is PMC2665295.

Read-outs that look alike come from different tables or passages of the source.

For test [1], the target named is rat αCaMKII (Ca2+/calmodulin-dependent protein kinase II, α subunit) (rat) (UniProt P11275). Kind of test: ITC.
The target is the same in test [2]. Kind of test: ITC. This is another data set of the same source. (In general: In ITC the heat of successive injections is recorded.)
For test [3] the target is unchanged.
For test [4] the target is unchanged. Kind of test: ITC. This is another data set of the same source.
Test [5] has the same target. Kind of test: ITC. This is another data set of the same source.

rat αCaMKII (Ca2+/calmodulin-dependent protein kinase II, α subunit) (rat), sequence (P11275 whole entry): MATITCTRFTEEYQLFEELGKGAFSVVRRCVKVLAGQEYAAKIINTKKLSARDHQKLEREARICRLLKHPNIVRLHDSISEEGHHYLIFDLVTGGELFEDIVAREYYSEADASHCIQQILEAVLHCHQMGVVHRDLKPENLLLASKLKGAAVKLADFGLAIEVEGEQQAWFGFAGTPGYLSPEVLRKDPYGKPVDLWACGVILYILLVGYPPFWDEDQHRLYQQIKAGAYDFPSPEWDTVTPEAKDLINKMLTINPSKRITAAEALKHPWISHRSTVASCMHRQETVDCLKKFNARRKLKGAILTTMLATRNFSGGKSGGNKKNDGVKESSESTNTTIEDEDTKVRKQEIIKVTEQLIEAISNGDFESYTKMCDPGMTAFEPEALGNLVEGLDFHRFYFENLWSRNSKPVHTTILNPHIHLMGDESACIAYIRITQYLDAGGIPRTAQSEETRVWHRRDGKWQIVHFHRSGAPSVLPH

On to “CaMCC, a chimeric molecule composed of two C-lobes of CaM”, for which, in test [1], the Kd (in general, the constant that tells how readily two partners part at equilibrium) amounted to 360 nM; the dH is -7.3 kcal/mol; the stoichiometry N – broadly, the number of molecules, sites or subunits per partner or assembly – worked out at 0.979. In test [2], the Kd was found to be 370 nM, the dH is -6.5 kcal/mol and the stoichiometry N amounted to 0.84. The substance further yielded an activation of CaMKII (phosphorylation of syntide), K0.5 in test [3] of 1.4 µM.
As to “wild-type calmodulin (from UniProt P0DP23 1-149) (natural protein; other documents disagree on this pair)”, in test [2], the Kd is 1320 nM, the dH was -12.8 kcal/mol and the stoichiometry N was 0.83. In test [4], this substance returned a Kd of 1900 nM, a dH of 1.7 kcal/mol and a stoichiometry N of 0.823. In test [5], this substance returned a dH of -11.1 kcal/mol and a stoichiometry N of 1.08.
Consider “CaMNN, a chimeric molecule composed of two N-lobes of CaM”, for which, in test [1], the Kd1 (binding mode 1) was 18 nM, the Kd2 (binding mode 2) was determined as 360 nM, the N1 (binding mode 1) was 0.36 and the N2 (binding mode 2) was 0.61. In test [1], this substance came in with a dH1 (binding mode 1) of -6.3 kcal/mol and a dH2 (binding mode 2) of -14.7 kcal/mol. Also, in test [2], the Kd1 (binding mode 1) came out at 0.064 µM, the Kd2 (binding mode 2) is 0.34 µM, the N1 (binding mode 1) came out at 0.26 and the N2 (binding mode 2) was 0.62. In test [2], this substance had a dH1 (binding mode 1) of 0.7 kcal/mol and a dH2 (binding mode 2) of -18.1 kcal/mol.
